The supplement of paper PMC10567573

B1: TMEM106C (parent)
chain: SEQLVNFTGKAEMGGPFSYVYFFC

Variants of: B1
Assay: protein stability index of a GFP-peptide fusion (GPS, HEK-293T) (PSI 1-6); higher = more stable
Conditions: c terminus: a fixed tail appended
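Note: lentivirally expressed fusions sorted by FACS into six bins by GFP to DsRed ratio, PSI derived from sequencing read proportions per bin multiplied by bin number.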

| Variant | protein stability index |
| --- | --- |
| SEQLVNFTGKDEMGGPFSYVYFFC [A11D] | 2.64 |
| SEQLVNFTGKCEMGGPFSYVYFFC [A11C] | 2 |
| SEQLVNFTGKFEMGGPFSYVYFFC [A11F] | 3.61 |
| SEQLVNFTGKGEMGGPFSYVYFFC [A11G] | 2.41 |
| SEQLVNFTGKEEMGGPFSYVYFFC [A11E] | 3.33 |
| SEQLVNFVGKAEMGGPFSYVYFFC [T8V] | 2.92 |
| SEQLVNFRGKAEMGGPFSYVYFFC [T8R] | 2.65 |
| SEQLVNFYGKAEMGGPFSYVYFFC [T8Y] | 3.78 |
| SEQLVNFMGKAEMGGPFSYVYFFC [T8M] | 2.02 |
| SEQLVNFQGKAEMGGPFSYVYFFC [T8Q] | 3.6 |
| SEQLVNFAGKAEMGGPFSYVYFFC [T8A] | 3.06 |
| SEQLVNFCGKAEMGGPFSYVYFFC [T8C] | 3.08 |
| SEQLVNFGGKAEMGGPFSYVYFFC [T8G] | 2.76 |
| SEQLVNFPGKAEMGGPFSYVYFFC [T8P] | 2.54 |
| SEQLVNFHGKAEMGGPFSYVYFFC [T8H] | 3.31 |
| SEQLVNFFGKAEMGGPFSYVYFFC [T8F] | 1.62 |
| SEQLVNFEGKAEMGGPFSYVYFFC [T8E] | 2.29 |
| SEQLVNFIGKAEMGGPFSYVYFFC [T8I] | 3.12 |
| SEQLVNFSGKAEMGGPFSYVYFFC [T8S] | 2.29 |
| SEQLVNFKGKAEMGGPFSYVYFFC [T8K] | 2.4 |
| SEQLVNFNGKAEMGGPFSYVYFFC [T8N] | 2.63 |
| SEQLVNFWGKAEMGGPFSYVYFFC [T8W] | 2.44 |
| SEQLVNFLGKAEMGGPFSYVYFFC [T8L] | 4.14 |
| SEQLVNRTGKAEMGGPFSYVYFFC [F7R] | 2.32 |

| Variant | protein stability index |
| --- | --- |
| SEQLVNMTGKAEMGGPFSYVYFFC [F7M] | 1.98 |
| SEQLVNSTGKAEMGGPFSYVYFFC [F7S] | 2.03 |
| SEQLVNGTGKAEMGGPFSYVYFFC [F7G] | 1.68 |
| SEQLVNTTGKAEMGGPFSYVYFFC [F7T] | 3.16 |
| SEQLVNDTGKAEMGGPFSYVYFFC [F7D] | 2.32 |
| SEQLVNLTGKAEMGGPFSYVYFFC [F7L] | 3.36 |
| SEQLVNITGKAEMGGPFSYVYFFC [F7I] | 2.32 |
| SEQLVNPTGKAEMGGPFSYVYFFC [F7P] | 3.16 |
| SEQLVNCTGKAEMGGPFSYVYFFC [F7C] | 3.4 |
| SEQLVNETGKAEMGGPFSYVYFFC [F7E] | 4.73 |
| SEQLVNNTGKAEMGGPFSYVYFFC [F7N] | 2.37 |
| SEQLVNYTGKAEMGGPFSYVYFFC [F7Y] | 3.39 |
| SEQLVNWTGKAEMGGPFSYVYFFC [F7W] | 2.51 |
| SEQLVNKTGKAEMGGPFSYVYFFC [F7K] | 2.69 |
| SEQLVNQTGKAEMGGPFSYVYFFC [F7Q] | 1.74 |
| SEQLVNHTGKAEMGGPFSYVYFFC [F7H] | 2.79 |
| SEQLVNVTGKAEMGGPFSYVYFFC [F7V] | 2.45 |
| SEQLVNFTVKAEMGGPFSYVYFFC [G9V] | 3.09 |
| SEQLVNFTLKAEMGGPFSYVYFFC [G9L] | 2.21 |
| SEQLVNFTNKAEMGGPFSYVYFFC [G9N] | 3.19 |
| SEQLVNFTCKAEMGGPFSYVYFFC [G9C] | 2.05 |
| SEQLVNFTYKAEMGGPFSYVYFFC [G9Y] | 3.05 |
| SEQLVNFTAKAEMGGPFSYVYFFC [G9A] | 3.2 |
| SEQLVNFTIKAEMGGPFSYVYFFC [G9I] | 2.8 |

| Variant | protein stability index |
| --- | --- |
| SEQLVNFTKKAEMGGPFSYVYFFC [G9K] | 2.89 |
| SEQLVNFTSKAEMGGPFSYVYFFC [G9S] | 2.97 |
| SEQLVNFTWKAEMGGPFSYVYFFC [G9W] | 2.95 |
| SEQLVNFTPKAEMGGPFSYVYFFC [G9P] | 2.28 |
| SEQLVNFTRKAEMGGPFSYVYFFC [G9R] | 3.01 |
| SEQLVNFTQKAEMGGPFSYVYFFC [G9Q] | 2.71 |
| SEQLVNFTHKAEMGGPFSYVYFFC [G9H] | 3.07 |
| SEQLVNFTMKAEMGGPFSYVYFFC [G9M] | 2.47 |
| SEQLVNFTFKAEMGGPFSYVYFFC [G9F] | 2.01 |
| SEQLVNFTTKAEMGGPFSYVYFFC [G9T] | 3.27 |
| SEQLVNFTEKAEMGGPFSYVYFFC [G9E] | 2.46 |
| SEQLVNFTDKAEMGGPFSYVYFFC [G9D] | 2.19 |
| SEQLVWFTGKAEMGGPFSYVYFFC [N6W] | 2.96 |
| SEQLVLFTGKAEMGGPFSYVYFFC [N6L] | 1.38 |
| SEQLVMFTGKAEMGGPFSYVYFFC [N6M] | 3.44 |
| SEQLVRFTGKAEMGGPFSYVYFFC [N6R] | 2.31 |
| SEQLVSFTGKAEMGGPFSYVYFFC [N6S] | 2.52 |
| SEQLVPFTGKAEMGGPFSYVYFFC [N6P] | 1.58 |
| SEQLVVFTGKAEMGGPFSYVYFFC [N6V] | 2.18 |
| SEQLVKFTGKAEMGGPFSYVYFFC [N6K] | 2.82 |
| SEQLVTFTGKAEMGGPFSYVYFFC [N6T] | 2.97 |
| SEQLVFFTGKAEMGGPFSYVYFFC [N6F] | 2.56 |
| SEQLVQFTGKAEMGGPFSYVYFFC [N6Q] | 2.39 |
| SEQLVHFTGKAEMGGPFSYVYFFC [N6H] | 1.97 |

| Variant | protein stability index |
| --- | --- |
| SEQLVIFTGKAEMGGPFSYVYFFC [N6I] | 2.71 |
| SEQLVGFTGKAEMGGPFSYVYFFC [N6G] | 3.12 |
| SEQLVYFTGKAEMGGPFSYVYFFC [N6Y] | 2.19 |
| SEQLVNFTGTAEMGGPFSYVYFFC [K10T] | 3.48 |
| SEQLVNFTGGAEMGGPFSYVYFFC [K10G] | 4.37 |
| SEQLVNFTGFAEMGGPFSYVYFFC [K10F] | 2.92 |
| SEQLVNFTGAAEMGGPFSYVYFFC [K10A] | 2.02 |
| SEQLVNFTGHAEMGGPFSYVYFFC [K10H] | 2.51 |
| SEQLVNFTGQAEMGGPFSYVYFFC [K10Q] | 3.07 |
| SEQLVNFTGWAEMGGPFSYVYFFC [K10W] | 3.18 |
| SEQLVNFTGCAEMGGPFSYVYFFC [K10C] | 2.55 |
| SEQLVNFTGIAEMGGPFSYVYFFC [K10I] | 3.15 |
| SEQLVNFTGPAEMGGPFSYVYFFC [K10P] | 2.32 |
| SEQLVNFTGSAEMGGPFSYVYFFC [K10S] | 3.56 |
| SEQLVNFTGEAEMGGPFSYVYFFC [K10E] | 2.94 |
| SEQLVNFTGRAEMGGPFSYVYFFC [K10R] | 2.99 |
| SEQLVNFTGDAEMGGPFSYVYFFC [K10D] | 2.33 |
| SEQLVNFTGVAEMGGPFSYVYFFC [K10V] | 3.02 |
| SEQLVNFTGLAEMGGPFSYVYFFC [K10L] | 1.94 |
| SEQLVNFTGYAEMGGPFSYVYFFC [K10Y] | 2.5 |
| SEQLVNFTGMAEMGGPFSYVYFFC [K10M] | 2.72 |
| SEQLVNFTGNAEMGGPFSYVYFFC [K10N] | 2.25 |
